Laboratory results published in PMC5473807, “Distribution and kinetics of the Kv1.3-blocking peptide HsTX1[R14A] in experimental rats” (Scientific Reports, 2017).
Where two headings read alike, the source gives them in different places.

Experiment: In vivo biodistribution by organ and tissue extraction
Parameters: species or system male Wistar rats
Conditions: for SUV at 5 min / tissue uptake dose at 5 min / SUV at 1 h / tissue uptake dose at 1 h / SUV at 4 h / tissue uptake dose at 4 h / SUV at 24 h / tissue uptake dose at 24 h / SUV at 48 h / tissue uptake dose at 48 h: male, Wistar, total radioactivity, rat, mean ± SD; for SUV at 5 min / tissue uptake dose at 5 min: 5 min p.i.; for SUV at 1 h / tissue uptake dose at 1 h: 60 min p.i.; for SUV at 4 h / tissue uptake dose at 4 h: 240 min p.i.; for SUV at 24 h / tissue uptake dose at 24 h: 1440 min p.i.; for SUV at 48 h / tissue uptake dose at 48 h: 2880 min p.i.
Experimental: The present study includes data obtained from a total of 50 animals. Four animals (body weight 227 ± 10 g) for each time point were injected intravenously into a tail vein or subcutaneously with approximately 0.3 MBq ([…]) [^64Cu]Cu-NOTA-HsTX1[R14A] conjugate in 0.5 mL electrolyte solution E-153 (Serumwerk Bernburg, Germany). Animals were euthanised at 5, 60, 240, 1440 and 2880 min post-injection. Blood and the major organs were collected, weighed, and counted in a cross-calibrated γ-counter (Isomed 1000, Isomed GmbH, Dresden) and Wallac WIZARD Automatic Gamma Counter (PerkinElmer, Germany). The radioactivity of the tissue samples was decay-corrected and calibrated by comparing the counts in tissue with the counts in aliquots of the injected radiotracer that had been measured in the γ-counter at the same time. The activity in the selected organs was expressed as percent-injected dose per organ (% ID) and the activity concentration in tissues and organs as standardised uptake value (SUV). Values are quoted as mean ± standard error of mean (SEM) for each group of four animals.

[1] = Harderian gland, iv, 0.3 MBq, i.v., n=4, read-out: Harderian gl. SUV
[2] = Harderian gland, iv, 0.3 MBq, i.v., n=4, read-out: Harderian gl. activity amount
[3] = Harderian gland, iv, 0.3 MBq, i.v., n=8, read-out: Harderian gl. SUV
[4] = Harderian gland, iv, 0.3 MBq, i.v., n=8, read-out: Harderian gl. activity amount
[5] = Harderian gland, sc, 0.3 MBq, s.c., n=4, read-out: Harderian gl. SUV
[6] = Harderian gland, sc, 0.3 MBq, s.c., n=4, read-out: Harderian gl. activity amount
[7] = adrenals, iv, 0.3 MBq, i.v., n=4, read-out: Adrenals SUV
[8] = adrenals, iv, 0.3 MBq, i.v., n=4, read-out: Adrenals activity amount
[9] = adrenals, iv, 0.3 MBq, i.v., n=8, read-out: Adrenals SUV
[10] = adrenals, iv, 0.3 MBq, i.v., n=8, read-out: Adrenals activity amount
[11] = adrenals, sc, 0.3 MBq, s.c., n=4, read-out: Adrenals SUV
[12] = adrenals, sc, 0.3 MBq, s.c., n=4, read-out: Adrenals activity amount
[13] = blood, sc, s.c., n=4, read-out: Blood SUV
[14] = brain, iv, 0.3 MBq, i.v., n=4, read-out: Brain SUV
[15] = brain, iv, 0.3 MBq, i.v., n=4, read-out: Brain activity amount
[16] = brain, iv, 0.3 MBq, i.v., n=8, read-out: Brain SUV
[17] = brain, iv, 0.3 MBq, i.v., n=8, read-out: Brain activity amount
[18] = brain, sc, 0.3 MBq, s.c., n=4, read-out: Brain SUV
[19] = brain, sc, 0.3 MBq, s.c., n=4, read-out: Brain activity amount
[20] = carcass, iv, 0.3 MBq, i.v., n=4, read-out: Carcass activity amount
[21] = carcass, iv, 0.3 MBq, i.v., n=8, read-out: Carcass activity amount
[22] = carcass, sc, 0.3 MBq, s.c., n=4, read-out: Carcass activity amount
[23] = femur, iv, 0.3 MBq, i.v., n=4, read-out: Femur SUV
[24] = femur, iv, 0.3 MBq, i.v., n=4, read-out: Femur activity amount
[25] = femur, iv, 0.3 MBq, i.v., n=8, read-out: Femur SUV
[26] = femur, iv, 0.3 MBq, i.v., n=8, read-out: Femur activity amount

CSCC[C@@H]1NC(=O)[C@@H]2CSSC[C@H](NC(=O)[C@H](CO)NC(=O)[C@H](C)NC(=O)COCCOCCNC(=O)CN3CCN(CC(=O)O)CCN(CC(=O)O)CC3)C(=O)N[C@@H](CCCNC(=N)N)C(=O)N[C@@H]([C@@H](C)O)C(=O)N3CCC[C@H]3C(=O)N[C@@H](CCCCN)C(=O)N[C@@H](CC(=O)O)C(=O)N[C@H]3CSSC[C@H](NC(=O)[C@H](CCCCN)NC(=O)[C@H](CCCNC(=N)N)NC(=O)[C@H](CC(N)=O)NC1=O)C(=O)N[C@@H](CCCCN)C(=O)N[C@H]1CSSC[C@H](NC(=O)[C@@H]4CCCN4C(=O)[C@H](CC(=O)O)NC(=O)[C@H](C)NC3=O)C(=O)N[C@@H](C)C(=O)N[C@@H](CCCCN)C(=O)N[C@@H](CCC(=O)O)C(=O)N[C@@H]([C@@H](C)O)C(=O)NCC(=O)N[C@@H](CSSC[C@@H](C(N)=O)NC(=O)[C@H](CCCNC(=N)N)NC(=O)[C@H](CC(N)=O)NC1=O)C(=O)N1CCC[C@H]1C(=O)N[C@@H](Cc1ccc(O)cc1)C(=O)NCC(=O)N[C@@H](CCCCN)C(=O)N2 [[^64Cu]Cu-NOTA-HsTX1[R14A], metal not drawn]
biological half-life of the total activity in the rat body (i.v.): 45.4 h
SUV at 5 min [1]: 0.82 ± 0.12 SUV
tissue uptake dose at 5 min [2]: 0.1 ± 0.02 %ID
SUV at 1 h [3]: 0.3 ± 0.05 SUV
tissue uptake dose at 1 h [4]: 0.04 %ID
SUV at 4 h [1]: 0.23 ± 0.01 SUV
tissue uptake dose at 4 h [2]: 0.03 %ID
SUV at 24 h [3]: 0.56 ± 0.1 SUV
tissue uptake dose at 24 h [4]: 0.08 ± 0.01 %ID
SUV at 48 h [1]: 0.48 ± 0.05 SUV
tissue uptake dose at 48 h [2]: 0.07 %ID
SUV at 1 h [5]: 0.32 ± 0.01 SUV
tissue uptake dose at 1 h [6]: 0.04 %ID
SUV at 4 h [5]: 0.21 ± 0.01 SUV
tissue uptake dose at 4 h [6]: 0.03 %ID
SUV at 24 h [5]: 0.46 ± 0.01 SUV
tissue uptake dose at 24 h [6]: 0.08 ± 0.01 %ID
SUV at 48 h [5]: 0.44 ± 0.02 SUV
tissue uptake dose at 48 h [6]: 0.06 ± 0.01 %ID
SUV at 5 min [7]: 1.26 ± 0.48 SUV
tissue uptake dose at 5 min [8]: 0.03 %ID
SUV at 1 h [9]: 0.65 ± 0.37 SUV
tissue uptake dose at 1 h [10]: 0.01 %ID
SUV at 4 h [7]: 0.39 ± 0.05 SUV
tissue uptake dose at 4 h [8]: 0.01 %ID
SUV at 24 h [9]: 0.86 ± 0.11 SUV
tissue uptake dose at 24 h [10]: 0.02 %ID
SUV at 48 h [7]: 0.71 ± 0.04 SUV
tissue uptake dose at 48 h [8]: 0.02 %ID
SUV at 1 h [11]: 0.4 ± 0.08 SUV
tissue uptake dose at 1 h [12]: 0.01 %ID
SUV at 4 h [11]: 0.4 ± 0.02 SUV
tissue uptake dose at 4 h [12]: 0.01 %ID
SUV at 24 h [11]: 0.73 ± 0.1 SUV
tissue uptake dose at 24 h [12]: 0.02 %ID
SUV at 48 h [11]: 0.55 ± 0.33 SUV
tissue uptake dose at 48 h [12]: 0.02 ± 0.01 %ID
SUV at 5 min (blood, iv, 0.3 MBq, i.v., n=4, read-out: Blood SUV): 1.09 ± 0.62 SUV
SUV at 1 h (blood, iv, 0.3 MBq, i.v., n=8, read-out: Blood SUV): 0.7 ± 0.23 SUV
SUV at 4 h [13]: 0.47 ± 0.21 SUV
SUV at 24 h [13]: 0.44 ± 0.04 SUV
SUV at 48 h [13]: 0.3 ± 0.01 SUV
SUV at 5 min [14]: 0.07 SUV
tissue uptake dose at 5 min [15]: 0.05 %ID
SUV at 1 h [16]: 0.05 ± 0.01 SUV
tissue uptake dose at 1 h [17]: 0.05 ± 0.03 %ID
SUV at 4 h [14]: 0.03 SUV
tissue uptake dose at 4 h [15]: 0.05 ± 0.01 %ID
SUV at 24 h [16]: 0.08 ± 0.01 SUV
tissue uptake dose at 24 h [17]: 0.08 ± 0.03 %ID
SUV at 48 h [14]: 0.07 SUV
tissue uptake dose at 48 h [15]: 0.1 %ID
SUV at 1 h [18]: 0.04 SUV
tissue uptake dose at 1 h [19]: 0.06 ± 0.01 %ID
SUV at 4 h [18]: 0.03 SUV
tissue uptake dose at 4 h [19]: 0.05 %ID
SUV at 24 h [18]: 0.06 SUV
tissue uptake dose at 24 h [19]: 0.1 %ID
SUV at 48 h [18]: 0.07 SUV
tissue uptake dose at 48 h [19]: 0.09 %ID
tissue uptake dose at 5 min [20]: 63.4 ± 6.19 %ID
tissue uptake dose at 1 h [21]: 28.1 ± 1.55 %ID
tissue uptake dose at 4 h [20]: 20.1 ± 1.68 %ID
tissue uptake dose at 24 h [21]: 28.4 ± 3.49 %ID
tissue uptake dose at 48 h [20]: 21.6 ± 1.04 %ID
tissue uptake dose at 1 h [22]: 32.9 ± 2.62 %ID
tissue uptake dose at 4 h [22]: 20.1 ± 1.28 %ID
tissue uptake dose at 24 h [22]: 28.5 ± 1.49 %ID
tissue uptake dose at 48 h [22]: 19.7 ± 2.74 %ID
SUV at 5 min [23]: 3.04 ± 2.13 SUV
tissue uptake dose at 5 min [24]: 1.32 ± 0.89 %ID
SUV at 1 h [25]: 1.58 ± 0.58 SUV
tissue uptake dose at 1 h [26]: 0.8 ± 0.21 %ID
SUV at 4 h [23]: 0.87 ± 0.04 SUV
tissue uptake dose at 4 h [24]: 0.55 ± 0.03 %ID
SUV at 24 h [25]: 0.54 ± 0.06 SUV
tissue uptake dose at 24 h [26]: 0.3 ± 0.06 %ID
